# Data taken from article PMC7826273.
# Changes are numbered by the printed parent chain. Read-outs that look alike come from different tables or passages of the source.
# T1: FmhB (Staphylococcus aureus, UniProt Q2FVZ4 1-421)
# T1 sequence: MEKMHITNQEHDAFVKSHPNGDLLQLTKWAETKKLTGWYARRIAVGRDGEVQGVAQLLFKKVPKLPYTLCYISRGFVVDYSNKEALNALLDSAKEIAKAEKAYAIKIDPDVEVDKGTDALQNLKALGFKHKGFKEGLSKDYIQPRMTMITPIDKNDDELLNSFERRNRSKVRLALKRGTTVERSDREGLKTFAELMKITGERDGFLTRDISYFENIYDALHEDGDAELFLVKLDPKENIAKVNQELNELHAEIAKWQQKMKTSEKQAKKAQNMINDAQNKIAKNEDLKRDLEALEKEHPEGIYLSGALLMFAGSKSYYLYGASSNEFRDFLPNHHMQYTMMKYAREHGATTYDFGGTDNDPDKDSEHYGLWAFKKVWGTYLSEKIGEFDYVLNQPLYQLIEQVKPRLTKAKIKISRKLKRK
# B1: NP2 stable Gly-tRNA analogue, 2' isomer (structured_RNA)
# RNA: GCGGGAGUAGUUCAACUUUUAGAACACGUUCCUUCCCGGAACGAGGUAUAGGUGUAAAUCCUAUCUUCCGCUCCA
# modifications: 2'-(1,4-triazole-alkyne; nonadiyne) on terminal A; penultimate C is dC (pdCpA ligation)
# B2: CHIM1 analogue (NP2 with P1 acceptor stem) (structured_RNA)
# RNA: B1 RNA with G3A, G5A, U55C, C69U
# modifications: 2'-triazole-nonadiyne on terminal A; penultimate C is dC
# B3: NP2 stable Gly-tRNA analogue, 3' isomer (structured_RNA)
# RNA: B1 RNA
# modifications: 3'-(1,4-triazole-alkyne; nonadiyne) on terminal A; penultimate C is dC (pdCpA ligation)
# B4: Gly-tRNAGly P1 (structured_RNA)
# RNA: GCAGAAGUAGUUCAGCGGUAGAAUACAACCUUGCCAAGGUUGGGGUCGCGGGUUCGAAUCCCGUCUUCUGCUCCA
# modifications: 3'-glycyl ester
# B5: CHIM2 analogue (P1 with NP2 acceptor stem) (structured_RNA)
# RNA: B4 RNA with A3G, A5G, U69C
# modifications: 2'-triazole-nonadiyne on terminal A; penultimate C is dC
# B6: tRNAGly P1 (GCC-1), unacylated (structured_RNA)
# RNA: B4 RNA
# B7: P1 stable Gly-tRNA analogue, 2' isomer (structured_RNA)
# RNA: B4 RNA
# modifications: 2'-(1,4-triazole-alkyne; nonadiyne) on terminal A; penultimate C is dC (pdCpA ligation)
# B8: P1_1 analogue (P1 with NP2 region 1) (structured_RNA)
# RNA: GCAGAAGUAGUUCAACUUUUAGAAUACAACCUUGCCAAGGUUGGGGUGCGGGUUCGAAUCCCGUCUUCUGCUCCA
# modifications: stable triazole-nonadiyne analogue (2' isomer presumed)
# B9: CHIM4 analogue (P1 with NP2 anticodon stem-loop) (structured_RNA)
# RNA: GCAGAAGUAGUUCAGCGGUAGAAUACGUUCCUUCCCGGAACGGGGUCGCGGGUUCGAAUCCCGUCUUCUGCUCCA
# modifications: 2'-triazole-nonadiyne on terminal A; penultimate C is dC
# B10: CHIM3 analogue (NP2 with P1 anticodon stem-loop) (structured_RNA)
# RNA: GCGGGAGUAGUUCAACUUUUAGAACACAACCUUGCCAAGGUUGAGGUAUAGGUGUAAAUCCUAUCUUCCGCUCCA
# modifications: 2'-triazole-nonadiyne on terminal A; penultimate C is dC
# B11: CHIM5 analogue (NP2 with P1 anticodon stem-loop and acceptor stem) (structured_RNA)
# RNA: B10 RNA with G3A, G5A, C69U
# modifications: 2'-triazole-nonadiyne on terminal A; penultimate C is dC
# Columns and labels:
# [1] = target: T1, FmhB; assay: competition
# [2] = target: T1, FmhB; assay: competition; remark: listed apart in the source
# [3] = target: T1, FmhB; assay: competition; remark: listed apart in the source
# [4] = target: EF-Tu (GTP form) (UniProt P99152 1-394); assay: competition
# Sequence of EF-Tu (GTP form) (P99152 whole entry): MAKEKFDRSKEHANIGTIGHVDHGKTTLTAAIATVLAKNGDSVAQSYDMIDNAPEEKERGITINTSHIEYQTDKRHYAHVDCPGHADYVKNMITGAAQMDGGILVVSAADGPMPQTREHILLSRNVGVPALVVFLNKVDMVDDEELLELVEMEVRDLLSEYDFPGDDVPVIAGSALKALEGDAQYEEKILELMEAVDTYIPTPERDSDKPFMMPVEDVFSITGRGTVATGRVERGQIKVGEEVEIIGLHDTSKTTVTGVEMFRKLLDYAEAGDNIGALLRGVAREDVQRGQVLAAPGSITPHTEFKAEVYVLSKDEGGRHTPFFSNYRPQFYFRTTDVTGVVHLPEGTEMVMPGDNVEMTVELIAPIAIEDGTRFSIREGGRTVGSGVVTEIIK
# [5] = target: T1, FmhB; assay: size-exclusion chromatography
# [6] = target: T1, FmhB; assay: competition; remark: listed apart in the source
binder,measurement,setting,value
B1,Ki,[1],8.6 ± 2 nM
B2,Ki,[2],7.6 ± 0.7 nM
B3,Ki,[3],110 ± 6 nM
B4,binding signal,[4],14 ± 3 % residual FmhB activity at 4 uM EF-Tu
B5,Ki,[2],1000 ± 160 nM
B6,binding result,[5],no binding
B7,Ki,[3],320 ± 10 nM
B8,binding signal,[6],2 ± 0.3 fold reduction in Ki vs P1 analogue
B9,Ki,[2],220 ± 40 nM
B10,Ki,[2],5.4 ± 0.3 nM
B11,Ki,[2],19 ± 2 nM
